The values below come from patent US20250145724A1 (TWIST BIOSCIENCE, published 2025).

Assay [1] addresses T1, Adenosine A2A receptor (human) (human, UniProt P29274 1-412).
T1 construct: also called hA2a; hA2a receptor
In words: flow cytometry titration 0.05-100 nM IgG, MFI; grey curve and grey number taken as HEK293-A2a cells, black (ND) as parent cells, no legend on the sheet.
Method: (§1) Flow cytometry data showing binding to HEK293-A2a cells using immunoglobulins from variant libraries were generated using 100 nM IgG and compared to detected binding in parent cells. […] Selected variants were assessed for binding at concentrations titrated from 100 nM. […] Binding curves are plotted with IgG concentration vs. MFI (mean fluorescence intensity). […] Selected variants were assessed for binding at concentrations titrated from 100 nM. […] Binding curves are plotted with IgG concentration vs. MFI (mean fluorescence intensity).

The next assay addresses T2, hA2b receptor (human, UniProt P29275 1-332).
T2 construct: whole, on cells; also called adenosine A2B receptor
T2 sequence (looked up): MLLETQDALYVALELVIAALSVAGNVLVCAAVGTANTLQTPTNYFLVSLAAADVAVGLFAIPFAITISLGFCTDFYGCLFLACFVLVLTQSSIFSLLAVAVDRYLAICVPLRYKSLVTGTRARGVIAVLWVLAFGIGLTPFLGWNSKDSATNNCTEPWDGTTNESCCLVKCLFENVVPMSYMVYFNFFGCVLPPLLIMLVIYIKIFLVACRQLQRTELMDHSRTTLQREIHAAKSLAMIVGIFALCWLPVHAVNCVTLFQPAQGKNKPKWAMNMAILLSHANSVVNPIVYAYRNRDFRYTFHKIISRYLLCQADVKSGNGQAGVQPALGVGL
The assay can be described thus: cell binding on hA2b HEK293T cells, one bar per antibody; the y axis has no label or unit and the antibody concentration is not given.

The target of assay [2] is T1, Adenosine A2A receptor (human). The assay can be described thus: cell binding titration from 100 nM, RL1-H MFI; panel 'Immune Library to A2a protein + ZM241385'.
Method: (§2) Purified A2a immunoglobulins from Tables 15-18 were assayed for binding in a titration from 100 nM.
For assay [3] the target is unchanged. In words: cell-based or functional assay.
The target is the same in assay [4]. In words: cell-based or functional assay. This is another data set of the same source.
For assay [5] the target is unchanged. In words: flow cytometry titration of IgG from 100 nM on hA2a (RL1-H MFI against IgG in nM); EC50 from the table drawn beside the curves.
Assay [6] shares this target. The assay can be described thus: cell binding titration from 100 nM, RL1-H MFI; panel 'Synthetic Library to A2a protein + ZM241385'.
Method: as §2
Assay [7] shares this target. In words: flow cytometry titration 0.05-100 nM IgG, MFI; grey curve taken as HEK293-A2a cells, black as parent cells.
Method: as §1
Assay [8] shares this target. In words: cell binding titration from 100 nM, RL1-H MFI; panel 'Mouse Immune Library to A2a protein'.
Method: as §2

T1 sequence (P29274 whole entry): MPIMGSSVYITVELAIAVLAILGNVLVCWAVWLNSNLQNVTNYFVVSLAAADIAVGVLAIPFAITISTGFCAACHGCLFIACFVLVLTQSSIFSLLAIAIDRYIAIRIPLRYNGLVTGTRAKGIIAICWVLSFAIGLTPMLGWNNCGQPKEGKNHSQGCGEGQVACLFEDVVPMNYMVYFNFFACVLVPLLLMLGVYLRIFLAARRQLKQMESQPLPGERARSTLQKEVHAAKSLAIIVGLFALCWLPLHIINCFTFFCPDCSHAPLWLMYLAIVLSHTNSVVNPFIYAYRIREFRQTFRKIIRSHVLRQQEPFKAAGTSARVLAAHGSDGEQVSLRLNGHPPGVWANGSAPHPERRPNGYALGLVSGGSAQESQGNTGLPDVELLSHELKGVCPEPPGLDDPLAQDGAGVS

B1: A2A-9 (antibody, V domains shown)
VH: EVQLQQSGPGLVKPSQSLSLTCSVTGYSITSGYYWNWIRQFPGKKLEWMGYIRYDGSNNYNPSLKNRISITRDTSKNQFFLKLNSVTTDDTATYYCARVHHYYGSSYFDYWGQGTTLTVSS
VL: DIVMTQSQKFMSTSVGDRVSATCKASQNVGSSVAWFQQKPGQSPKALIYSTSYRYSGVPDRFTGSGSGTDFTLTISNVQSEDLAEYFCQQYNSYPLTFGAGTKLEIK
notes: Tested as IgG
Take B1: the EC50 in [1] was 3.83 nM.

B2: A2A-83 (antibody, V domains shown)
VH: EVQRVQSGAELVKPGASVKISCKASGYAFSSYWMNWVKQRPGKGLEWIGQIYPGDGDTNYNGKFEGKATLTADKSSSTAYMQLTSLTSDDSAVYYCARGAYWGQGTTLTVSS
VL: DIQMKQSQKFMSTSVGDRVSVTCKASQNVGTNVAWYQQKPGQSPKALIYSASYRYSGVPDRFTGSGSGTDFTLTISNVQSGDLAEYFCQQYNSYPLTFGAGTKLEIK
notes: Tested as IgG
As for B2, the binding result with hA2b receptor is “binds”.

B3: A2A – 79 (antibody, V domains shown)
VH: QVQLQESGGGVVRPGGSLRLSCAASGFTFDDYGMSWVRQVPGKGLEWVSGITWNGDRSGYADSVKGRFTISRDNAKNSLYLQMNSLRAEDTALYYCVRDGLTGIFDYWGQGTLVTVSS
VL: ELTLTQSPATLSVSPGERATLSCRASQSVSSYLAWYQQKPGQAPRLLIYGASSRATGIPDRFSGSGSGTDFTLTISRLEPEDFAVYYCQQYGNSYTFGQGTKVDIK
notes: panel 'Immune Library to A2a protein + ZM241385'
Turning to B3, the binding result in [2] is “binds”.

B4: A2A-88 (antibody)
heavy chain variable region: EVQLVESGGGLVKPGGSLRLSCAASGFTFRTYGMHWVRQAPGKGLEWVAVISAEGSNKYYADSVKGRFTISRDNSKNTLYLQMNSLRAEDTAVYYCARDGRGSLPRPKGGFIGALSFHWPFGRWLGGSYGTYDSSEDSGGAFDIWGQGTLVTVSS
light chain variable region: QSVLTQPPSVSAAPGQKVTISCSGISSNIGNNYVSWYQQLPGTAPKLLIYDNNKRASGIPDRFSGSKSGTSATLGITGLQTGDEADYYCGTWDTSLSAGVFGGGTKLTVL
Consider B4, for which the binding result with hA2b receptor was “binds”.

B5: A2A-78 (antibody, V domains shown)
VH: EVQLLESGGGLVQPGGSLRLSCAASGFTFSAYDIYWVRQPTGKGLEWVSAIGTAGDTYYPGSVKGRFIISRESAKNSVYLQMNSLRAGDTAVYYCAVGYNWVFDLWGQGTLVTVSS
VL: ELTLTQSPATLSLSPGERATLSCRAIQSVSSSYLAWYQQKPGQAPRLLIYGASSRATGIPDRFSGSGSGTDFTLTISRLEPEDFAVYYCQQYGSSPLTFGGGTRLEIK
notes: Tested as IgG
Regarding B5, the “EC50 (read off the curve)” value in [2] is about 5 nM.

B6: A2A-77 (antibody, V domains shown)
VH: QVQLQESGPGLVKPSGTLSLTCAVSGGSISSSNWWSWVRQPPGKGLEWIGEIYHSGNTNYNPSLKSRVTMSVDKSKNQFSLNLHSVTAADTAVYYCAREVVSGMIGTIFDYWGQGTLVTVSS
VL: ELVMTQSPSSLSASVGDRVTITCRASQRISSYLNWYQQKPGKAPKLLIYAASSLQSRVPSRFSGSGSGTDFTLTISSLQPEDFATYYCQQSYSTPLTFGGGTKLETK
notes: Tested as IgG
B6: the “IC50 (antagonistic cAMP assay, RFU ratio 665/615nm against IgG in nM)” value in assay [3] was determined as 3.52 nM. Further, in assay [4], the “IC50, T cell activation assay (FIG. 32C)” value is 5.92 nM. The EC50 in [5] was 5.76 nM. The “EC50 (read off the curve)” value in assay [2] was about 5 nM.

B7: A2A-75 (antibody, V domains shown)
VH: QVQLQESGPGLVKPSGTLSLTCAVSGGSISSSNWWSWVRQPPGKGLEWIGEIYHSGNTNYNPSLKSRVTMSVDKSKNQFSLNLHSVTAADTAVYYCAREVVSGMIGTIFDYWGQGTLVTVSS
VL: ELVMTQFPSSLSASVGDRVTITCRASQSISSYLNWYQQKPGKAPKLLIYAASSLQSGVPSRFSGSGSGTDFTLTISSLQPEDFATYYCQQANSFPITFGQGTRLEIK
notes: Tested as IgG
B7: the binding result with hA2b receptor was “no binding”.

B8: A2A-26 (antibody, V domains shown)
VH: EVQLLESGGGLVQPGGSLRLSCAASGFTFSTYAMGWVRQAPGKGLEWVSGISGSAGSTYYADSVKGRFTISRDNSKNTLYLQMNSLRAEDTAVYYCAAARGHWRWRLGRRYDYWGQGTLVTVSS
VL: DIQMTQSPSSLSASVGDRVTITCRASQTISRYLNWYQQKPGKAPKLLIYSASTLQSGVPSRFSGSGSGTDFTLTISSLQPEDFATYYCQQSYSTPHTFGGGTKVEIK
notes: Tested as IgG
For the molecule B8, the binding result (in assay [6]; with hA2b receptor) was “binds” each time.

B9: A2A-35 (antibody, V domains shown)
VH: EVQLVESGGGLVKPGGSLRLSCAASGFTFSTYGMSWVRQAPGKGLEWVSGISGSGGSTNYADSVKGRFTISRDNSKNTLYLQMNSLRAEDTAVYYCAAARGKWRWRLGRRYDYWGQGTLVTVSS
VL: DIQMTQSPSSLSASVGDRVTITCRASQSIGRYLNWYQQKPGKAPKLLIYAASSLHSGVPSRFSGSGSGTDFTLTISSLQPEDFATYYCQQSYVTPWTFGGGTKVEIK
notes: Tested as IgG
As for B9, the binding result with hA2b receptor is “binds”.

B10: A2A-27 (antibody, V domains shown)
VH: EVQLVESGGGLVKPGGSLRLSCAASGFTFSSYAMAWVRQAPGKGLEWVSAISGSGGSTYFADSVKGRFTISRDNSKNTLYLQMNSLRAEDTAVYYCAAARGYWRWRLWRRYDYWGQGTLVTVSS
VL: DIQMTQSPSSLSASVGDRVTITCRASQSIGSYLNWYQQKPGKAPKLLIYGASNLQSGVPSRFSGSGSGTDFTLTISSLQPEDFATYYCQQGYSAPRTFGGGTKLEIK
notes: Tested as IgG; also called A2A-27 (Alloy)
In the case of B10, the binding result (in assay [6]; in the assay with hA2b receptor) was “binds” each time.

B11: A2A-19 (antibody, V domains shown)
VH: EVQLVESGGGLVKPGGSLRLSCAASGFTFSGYAMNWVRQAPGKGLEWVSTISGSGASTYYADSVKGRFTISRDNSKNTLYLQMNSLRAEDTAVYYCAAARGYKRWRLGRRYDYWGQGTLVTVSS
VL: DIQMTQSPSSLSASVGDRVTITCRASQSISDYLNWYQQKPGKAPKLLIYTASTLQSGVPSRFSGSGSGTDFTLTISSLQPEDFATYYCEQSYSTPWTFGGGTKLEIK
notes: Tested as IgG
As for B11, the binding result with hA2b receptor is reported as “binds”.

B12: A2A-15 (antibody, V domains shown)
VH: EVQLVESGGGLVKPGGSLRLSCAASGFTFSTYGMSWVRQAPGKGLEWVSGISGSGGSTNYADSVKGRFTISRDNSKNTLYLQMNSLRAEDTAVYYCAAARGKWRWRLGRRYDYWGQGTLVTVSS
VL: DIQMTQSPSSLSASVGDRVTITCRASQSIGRYLNWYQQKPGKAPKLLIYAASSLHSGVPSRFSGSGSGTDFTLTISSLQPEDFATYYCQQSYVTPWTFGGGTKLEIK
Turning to B12, the binding result in assay [7] was “no binding (tested: 100 nM)”.

B13: A2A-84 (antibody, V domains shown)
VH: EVQLVESGGGLVKPGGSLRLSCAASGYTFTEYITHWVRQAPGKGLEWVATISGGGSYTNFPDSVKGRFTISRDNAKNTLFLQMTSLRSEDTAMYYCARPNYSGSSPFAYWGQGTLVTVSA
VL: DIVMTQAPAIMSASPGEKVTMTCSASSSVSYMYWYQQKPGSSPRFLIYDTSNLASGVPVRFSGSGSGTSYSLTISSMEAEDAATYYCQQWNSNPLTFSAGTKLEIK
notes: Tested as IgG
For the molecule B13, in [8], the binding result is “binds”.

B14: A2A – 80 (antibody, V domains shown)
VH: QVQLVQSGGGLVKPGGSLRLSCAASGFTISTYDIYWVRQATGKGLEWVSAIGTAGDTYYPGSVKGRFTISRENAKNSLYLQMNSLRAGDTAVYYCASGYNWIFDYWGQGTLVTVSS
VL: ELTLTQSPGTLSLSPGERATLSCRASQSVSSNLAWYQQKPGQAPRLLIYGASTRATGTPARFSGSGSGTEFTLTISSLQSEDFAVYYCQQYGSSPPTFGQGTRLEIK
notes: as for B3
As to B14, the binding result in [2] was “binds”.
